Data taken from the domain aggregation screens of Martell et al. (2025).

Assay: soluble fraction after stress (log2 fold change); higher = more stays soluble; pooled small domains, quantitative proteomics
Details: stress: 75 degC
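Also: 20 min heating vs room temperature control held 20 min.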

Sequence | soluble fraction (log2)
HMESVTETFLTNLINRYIADKAGYIISYPSEYRIEVLYHGGQVLDYENLRKSINTYIPAHIGYKLVTI | 0.176
HMESYDSEIKEVLDLAGKGRWEEAQTKADALREMAPNNSLVERLHGWVLQAAHQRREQALENDIRE | 0.432
HMESYTEEMLEKMSVSKLRTIARELQVDNMTREQIRFGKKTELIQNILEFTGREIENMQLYDK | -0.0481
HMESYWVVLRPMAAGTQIGANDLGYRSVALGAAAKNYLAASTNPIGSITRRRLVAGELLQGSSLTDDARA | -0.653
HMETADREILLREIREIINERVDYNKDITDDEMKELVMNTVFERSRQQYMSIQDKQEIIQAIFNSMR | 0.029
HMETAESLLRRLIMLEDPAMQNAMYVLAVMLERGKQLVERAAKPHESGGILRVYEHKKSGDTFVVLDPR | -0.764
HMETDGGDLTPRERDVLSLIGRGLRNAEAASALGLSEHTIAGHIKSVYSKLGISTRAEAALLASRLGL | -0.499
HMETGGLAQEAERELALLQEQIAHHEALYRKGTPEISDGAFDELFDRYQELADSLGVPADERIDRA | 0.155
HMETIHEMVNRLSSEGFIKNEDGIWYLRDRRGDGTKWLKNPFFESTGEKDAFALIDHLKVNDELLSKLRK | -0.621
HMETINERVNSIIEREGHTVATFAKKIGVPWTTIKNIVSGRNAPSYDIMVKIINAVDWVDANYLVMG | -2.59
HMETKIKFQIQTLDELNIRKVADWDAKAITTVKKGQILDVVDTVAAKNGSTPMYRLESGLYITASPKYVKK | -1.16
HMETKPTELMLDVHKLRIGMFVYLDLGWMDHPFPLNRFKISTNAQIEQIKGLRLKQVKVMTALSDPASLL | -4.91
HMETKVIVPKVTGMNSKSAINYLSARGLKYKAVPADSGKSFHVVDQYPKSGTKVSPHSTVYLYS | 0.114
HMETLKEVPNLKGQQQEVAKQLLINAGLGVGKINIIEDSTIADGEVVTQSILPNTKVKKDTYVGFTVNKAP | 0.0288
HMETLKLRDSGKEVQSLQELLQRQGLSAPMNGIFDEATKSSVIAFQKANGLDADGIVGYKSWETLFTAG | 0.0141
HMETMSGTVKWFNTQKGYGFITGDDGAEYFAHQTQIKMDGFRTLDAGDIVEFDVRSEEKGLAAVNIVP | 0.781
HMETPDLTQLNPILDEYRGQKGAVIPVLQKAQKIYGFLPPEVLRRIAAGMRVPLSKIYGVATFYSQFY | 0.134
HMETQAGELQDAIRDAIAALPPRTREVFLMSRERNLRYGEIAEALGISVKAVEANMSRALRQLREKLSPFL | -1.26
HMETVMYLRQIKRPQGIYLAIQESYYDSSKKQSRTRTIESIGYLDNLRKEYEDPIAFFSQKAAAMTSEKKK | -1.55

Sequence | soluble fraction (log2)
HMETVQTGTVKVSNSLNVRSGAGTNYSVLGSLSNGAKVEIVGTSGSWYKIKYGSGYGYVSKDYVTVS | -0.0122
HMETVSFNPDIAVIPDYRHVVILGETTKTIANKYDIPVDILKAANPGLGNNVTKGDRLRVPDKTKLQ | 0.00398
HMETYHIQMKGDPSKGIVGFSQLDMVIDKIKRLETEKGIAPYELEVLDGDTMEKYSGEEFLTMHE | -0.0165
HMETYSGVERAAILVMYLERTLAKALLDHMNDEEVRRVGMAMASIDRVEGPDIERIVGDFVRELYEVS | -0.642
HMETYTVPEVLGLTPEQAAQLPEVKDIFTLDVKEEGDFSDKPVGTIVRQSPTEGEHRKGDNLVIEVWLSV | 0.166
HMEVADAAQRKILQALQVQPLTVEQLSQELRTDTGDLLVSLSMMEITGLIRREAGNTFLAVFAPK | -1.66
HMEVEIPSREALLGLVQKHLKPVSFDEFVSHFKLGDERQQVGIKRRLRAMERDGQLVYTKANSYGLPDRM | 0.436
HMEVGVSGTVFNTDSLNVRKGPGTNFDTVTSLKRGSVVEVFEQSAVDGTVWGRIANGWVNMQYVSL | -0.707
HMEVKEVDYSAFMTMTEENSISKVEIEENQILFKKKGDDQTTYKTARMDDPALITRLHDQGVDFTGQ | 0.139
HMEVKRANRKERFLEALPYQFSRQDYLNIADKNKIPHKTAEGYITKFVDAGLIHREAHNNYTNPTKA | -0.0913
HMEVLPLHQVKLKYAEADTILIALKSAQSMLSPRGQLLADNRSQQIFVYDDEAHTATLIEAIKHLDQPL | -0.166
HMEVLTEPKVQSIDTHGEKSTFVIESPNPLQPDEIAKLVGADGISVRVDRTWLKSHRDSTWTYSILTVS | -0.118
HMEVPFRNAAIFKTRSGDYAIRASYDGVDLGIKPIEKSTARTYFQLTDVKDKESFLNMTARNQYESEIAGI | -0.0612
HMEVPNLIGMTDKDLQRTYFQLPIEAAGDGSVVIKQLPEPGEKVKEGSVIRVLLG | 0.193
HMEVPQKTLEILEPWRGRKGFLIPVLQAVQHEFGYVPKEAIETVSREMKMPTAEIYGVVTFYAQFH | -0.571
HMEVSEGEIREKVESVFSSNPRQAYNYKQISKKLNINDKSERQIVWDVLRKLAGSGKIQEVEHGRFRARAE | -0.162
HMEVSKETFPAYVAVDSLPVYKSASTSSSKVTTIDFGREVTVVETRGGWAKIQYGSYKGFAEIEGMSKN | -1.06
HMEVVELTDDEKMILATLHDGPVEIGHIKQVVGLSGKKWDAATKSLRQKGLINVVLENEQKLMVK | 0.492
HMEWGEADFVRLDEALATLRTLSPRQAEVVDLRFFSELSLEETAATLGLSLATVKRDWSVARLYLQRALS | 0.198
